Here are results for five molecules from patent publication US20230250181A1 (published 2023).

In general, Kd refers to the free concentration of one partner at which half of the binding sites on the other are occupied at equilibrium, for simple one-to-one binding.

For test [1], the target named is T1, recombinant biotinylated PD1/CD279 protein from Biolegend (789406) (UniProt Q15116 25-167, limits assumed, biotinylated).
T1 construct: also called PD1/CD279 ligand
Nature of the test: ELISA; antibody coated on plate, biotinylated PD-1 titrated, streptavidin-HRP. How it is done:
The interaction of the unmodified and of conjugated anti-PD1 antibodies with PD-1 (CD279) were measured by ELISA assay. For these studies, Corning high-binding half-area plates (Fisher Scientific, Reinach, Switzerland) were coated overnight at 4° C. with 25 μl of unmodified or conjugated anti-PD1 antibodies at 2.5 μg/ml in PBS. Plates were then washed four times with 100 μl of PBS-0.02% Tween20. Plate surfaces were blocked with 25 μl of PBS-0.02% Tween20-1% BSA at 37° C. during 1 h. Plates were then washed four times with 100 μl of PBS-0.02% Tween20. […] Plates were then washed four times with 100 μl of PBS-0.02% Tween20. Twenty-five microliters of Streptavidin-Horseradish peroxidase (#RABHRP3, Merck, Buchs, Switzerland) diluted at 1:500 in PBS-0.02% Tween20-0.1% BSA were added to each well and incubated at Room Temperature during 30 min. Plates were then washed four times with 100 μl of PBS-0.02% Tween20. Fifty microliters of TMB substrate reagent (#CL07, Merck, Buchs, Switzerland) were added to each well and incubated at 37° C. during 5 min. After 5 min at 37° C., Horseradish peroxidase reaction was stopped by adding 50 μl/well of 0.5M H₂SO₄ stop solution. ELISA signal was then measured at 450 nm on an EnSpire plate reader from Perkin Elmer (Schwerzenbach, Switzerland).
In general terms: An ELISA detects its analyte on a solid surface through an enzyme-linked reagent.

Test [2] deals with T2, recombinant biotinylated human FcRn (human, UniProt P55899 24-297, limits assumed, biotinylated).
T2 construct: also called human neonatal Fc receptor
Nature of the test: AlphaLISA competition at pH 6; test molecule competes with human IgG acceptor beads for biotinylated human FcRn. On the procedure:
The interaction of the unmodified and of conjugated anti-PD1 antibodies with the human neonatal Fc receptor (FcRn) at pH 6 was measured using the AlphaLISA® Human FcRn Binding Kit (AL3095C) from Perkin Elmer (Schwerzenbach, Switzerland).
After 90 min at 23° C. in the dark, AlphaLISA® signal was measured on an EnSpire plate reader (Excitation at 680 nm, Emission at 615 nm) from Perkin Elmer (Schwerzenbach, Switzerland).

Test [3] has as its target T3, recombinant Human Fc gamma RIIIA/CD16a Protein (R&D systems, 4325-FC-050; CF) (human, UniProt P08637 17-208, limits assumed).
T3 construct: Bought protein; also called FcγRIIIa; FcgRIIIa
Nature of the test: ELISA; antibody coated on plate, recombinant receptor titrated. On the procedure:
(§1) The interaction of the unmodified and of conjugated anti-PD1 antibodies with human Fc gamma receptors I (FcγRI/CD64), with human Fc gamma receptors Ha (FcγRIIa/CD32a), with inhibitory human Fc gamma receptors IIb (FcγRIIb/CD32b), and with human Fc gamma receptors III FcγR3a/CD16 were measured by ELISA. Briefly, Corning high-binding half-area plates (Fisher Scientific, Reinach, Switzerland) were coated overnight at 4° C. with 25 μl of unmodified and of conjugated anti-PD1 antibodies at 2.5 μg/ml in PBS. Plates were then washed four times with 100 μl of PBS-0.02% Tween20. Plates surfaces were blocked with 25 μl of PBS-0.02% Tween20-1% BSA at 37° C. during 1 h. Plates were then washed four times with 100 μl of PBS-0.02% Tween20. Then twenty-five microliters of either recombinant Human Fc gamma RI/CD64 Protein (R&D systems, 1257-FC-050, CF), recombinant Human Fc gamma RIIA/CD32a (H167) Protein (R&D systems, 9595-CD-050, CF), recombinant Human Fc gamma RIIB/CD32b Avi-tag Protein (R&D systems, AVI1875-050, CF), or recombinant Human Fc gamma RIIIA/CD16a Protein (R&D systems, 4325-FC-050; CF) were added in five-fold serial dilutions ranging from 1000 nM to 0.001 nM into PBS-0.02% Tween20-0.1% BSA and incubated at 37° C. during 2 h. […] ELISA signal was then measured at 450 nm on an EnSpire plate reader from Perkin Elmer (Schwerzenbach, Switzerland). […]

Test [4] addresses T4, recombinant Human Fc gamma RI/CD64 Protein (R&D systems, 1257-FC-050, CF) (human, UniProt P12314 16-288).
T4 construct: Bought protein; also called FcγRI; FcgRI
Described as above. How it is done: as §1

T1 sequence (Q15116 25-167 limits assumed): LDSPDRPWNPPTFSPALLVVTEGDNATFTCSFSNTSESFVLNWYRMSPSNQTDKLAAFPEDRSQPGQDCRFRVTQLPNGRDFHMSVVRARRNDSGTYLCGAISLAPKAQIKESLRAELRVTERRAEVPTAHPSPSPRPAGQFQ
T2 sequence (P55899 24-297 limits assumed, form in doubt): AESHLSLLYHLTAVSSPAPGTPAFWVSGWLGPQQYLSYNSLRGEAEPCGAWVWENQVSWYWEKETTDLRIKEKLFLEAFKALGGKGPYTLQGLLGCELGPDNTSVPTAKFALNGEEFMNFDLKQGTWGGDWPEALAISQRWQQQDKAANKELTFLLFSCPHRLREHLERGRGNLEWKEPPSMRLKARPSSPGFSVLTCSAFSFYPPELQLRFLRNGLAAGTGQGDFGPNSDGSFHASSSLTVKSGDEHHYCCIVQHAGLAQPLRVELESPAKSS
T4 sequence (P12314 16-288 limits assumed): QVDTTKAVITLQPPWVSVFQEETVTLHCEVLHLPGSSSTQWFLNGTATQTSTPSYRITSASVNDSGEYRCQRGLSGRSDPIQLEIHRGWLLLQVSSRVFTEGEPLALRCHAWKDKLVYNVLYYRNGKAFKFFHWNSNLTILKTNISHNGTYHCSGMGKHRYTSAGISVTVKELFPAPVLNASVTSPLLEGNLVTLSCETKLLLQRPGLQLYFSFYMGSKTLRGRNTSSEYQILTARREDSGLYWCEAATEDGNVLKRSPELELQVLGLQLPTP
T3 sequence (P08637 17-208 limits assumed): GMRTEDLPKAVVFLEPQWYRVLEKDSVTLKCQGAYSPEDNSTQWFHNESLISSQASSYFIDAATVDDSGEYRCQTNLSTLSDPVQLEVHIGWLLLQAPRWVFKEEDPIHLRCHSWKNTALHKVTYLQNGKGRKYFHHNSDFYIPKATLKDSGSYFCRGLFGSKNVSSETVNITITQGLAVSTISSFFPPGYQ

B1: Composition K (antibody)
VH: QVQLVQSGAEVKKPGASVKVSCKASGYTFTSYYMYWVRQAPGQGLEWMGGVNPSNGGTNFNEKFKSRVTITADKSTSTAYMELSSLRSEDTAVYYCARRDYRYDMGFDYWGQGTTVTVSS
VL: EIVLTQSPATLSLSPGERATISCRASKGVSTSGYSYLHWYQQKPGQAPRLLIYLASYLESGVPARFSGSGSGTDFTLTISSLEPEDFATYYCQHSRELPLTFGTGTKVEIK
chain: APTSSSTKKTQLQLEHLLLDLQXILNGINNYKNPKLTRXLXYKFYXPKKATELKHLQCLEEELKPLEEVLXLAQSKNFHLRPRDLISNINVIVLELKGSETTFXCEYADETATIVEFLNRWITFSQSIISTLT
modifications: not fully specified; Composition AB: Nle at 23, 39, 46; Hse at 41, 71, 104; ~0.5 kDa PEG on Y45; 0.5 kDa PEG capped with azide on F42Y, reacted with DBCO on K288 (EU numbering) of the antibody's Fc region
notes: Immunocytokine; linker at K288 of the Fc region
Consider B1, for which the Kd in test [1] came out at 41 µM.

B2: LZM-009 (antibody, V domains shown)
VH: B1 VH
VL: B1 VL
As to B2, the Kd in test [1] was found to be 35 µM.

B3: Composition J (antibody)
VH: B1 VH
VL: B1 VL
chain: B1 chain
modifications: not fully specified; Composition AB: Nle at 23, 39, 46; Hse at 41, 71, 104; ~0.5 kDa PEG on Y45; 0.5 kDa PEG capped with azide on F42Y, reacted with DBCO on K288 (EU numbering) of the antibody's Fc region
notes: Immunocytokine; linker at K288 of the Fc region, DAR 1; also called LZM-009 conjugated to Composition AB, DAR 1, K288
In the case of B3, the Kd in test [1] was 27 µM.

B4: Composition H (antibody)
VH: B1 VH
VL: B1 VL
chain: B1 chain
modifications: not fully specified; Composition AB: Nle at 23, 39, 46; Hse at 41, 71, 104; ~0.5 kDa PEG on Y45; 0.5 kDa PEG capped with azide on F42Y, reacted with DBCO on K248 (EU numbering) of the antibody's Fc region
notes: Immunocytokine; linker at K248 of the Fc region, DAR 1; also called LZM-009 conjugated to Composition AB, DAR 1, K248
For B4, in test [1], the Kd was found to be 37 µM.

B5: Pembrolizumab (antibody, human IgG4 S228P, kappa)
heavy: not shown
light: EIVLTQSPATLSLSPGERATLSCRASKGVSTSGYSYLHWYQQKPGQAPRLLIYLASYLESGVPARFSGSGSGTDFTLTISSLEPEDFAVYYCQHSRDLPLTFGGGTKVEIKRTVAAPSVFIFPPSDEQLKSGTASVVCLLNNFYPREAKVQWKVDNALQSGNSQESVTEQDSKDSTYSLSSTLTLSKADYEKHKVYACEVTHQGLSSPVTKSFNRGEC
notes: also called Lambrolizumab
For the molecule B5, the dissociation constant Kd was determined as 0.00731 µM in test [2], 0.289 µM in test [3] and 0.000488 µM in test [4].
